Key:
SKIN1 = experiment: Quantitative RT-PCR of SKIN1 mRNA in leaves of 2-week-old rice seedlings after stress or ABA; type: in vivo; conditions: 6 h after salt stress (200 mM NaCl)
Procedure: FIG. 9. The expression of SKIN is induced by various abiotic stresses and ABA, and SKINs promote the ABA sensitivity. (A) Total RNA was purified from leaves of 2-week-old rice seedlings that had been air dried, treated with 200 mM salt, incubated at 4° C., or treated with 1 μM ABA, or from embryos of seedlings grown underwater (hypoxia), for various lengths of time. RNAs were subjected to quantitative RT-PCR analysis using primers specific for SKIN1 and SKIN2. The highest mRNA level was set as 100%. The lowest mRNA level was assigned a value of 1× and mRNA levels of other samples were calculated relative to this value. Error bars indicate the SE for three replicate experiments. (B) Seeds of transgenic lines SKIN1-Ox(O3), SKIN1-Ri(R3), SKIN2-Ox(02) and SKIN2-Ri(R1) were germinated and grown in water containing various concentrations of ABA at 28° C. under a 14-h light/10-h dark cycle for 6 days. Lengths of shoots were measured. Error bars represent SE (n=8) at significance levels: * p<0.1, ** p<0.05. […]
Total RNA was extracted from leaves of rice seedlings with the Trizol reagent (Invitrogen) and treated with RNase-free DNase I (Promega, Madison, Wis.). […] The quantitative variation between different samples was evaluated by the delta-delta CT method, and the amplification of 18S ribosomal RNA was used as an internal control to normalize all data.

αAmy3 SRC promoter [1] = experiment: Rice embryo transient expression assay, SRC-35Smp:Luc reporter (luciferase); type: cell-based; conditions: 24 h; for Antagonism of SnRK1A function on αAmy3 SRC promoter: co-transfected with Ubi:SnRK1A, +S or −S
Procedure: FIG. 3. The highly conserved GKSKSF domain (KSD) is essential for SKINs to antagonize the function of SnRK1A. Rice embryos were transfected with plasmids, incubated in medium with 100 mM glucose (+S) or without glucose (−S) for 24 h, and assayed for luciferase activity. The luciferase activity in rice embryos bombarded with the SRC-35S mp-Luc construct only and in +S medium was set to 1×, and other values were calculated relative to this value. Error bars indicate the SE for three replicate experiments. (A) Plasmid constructs. (B) Rice embryos were co-transfected with effector Ubi:SnRK1A, Ubi:SKIN1 or Ubi:SKIN(Ri) alone and reporter SRC-35Smp:Luc, or co-transfected with effectors Ubi:SnRK1A and Ubi:SKIN or Ubi:SKIN(Ri) and reporter SRC-35Smp:Luc. (C) Total cellular proteins were extracted from rice embryos transfected with Ubi:SnRK1A, Ubi:SKIN or Ubi:SnRK1A and Ubi:SKIN by particle bombardment and subjected to Western blot analysis using antibodies against SnRK1A and the HA tag fused to at the N-terminus of SKINs. (D) Rice embryos were co-transfected with effectors Ubi:SnRK1A and Ubi:SKIN1 (wild-type or truncated) and reporter SRC-35Smp:Luc. (E) Rice embryos were co-transfected with effectors Ubi:SnRK1A and Ubi:SKIN (wild-type, KSD deleted, or KSD replaced with 6 Ala) and reporter SRC-35Smp:Luc.
(§1) FIG. 21. ABA and sorbitol suppress the function of SnRK1A in activation of αAmy3 SRC promoter. Rice embryos and barley aleurones were transfected with reporter SRC-35Smp:Luc with or without effectors, incubated with or without ABA for 24 h, and assayed for luciferase activity. The luciferase activity in embryos or aleurones bombarded with the SRC-35S mp-Luc construct only and in +S medium was set to 1×, and other values were calculated relative to this value. Error bars indicate the SE for three replicate experiments. (A) Plasmid constructs. (B) Barley aleurones were transfected with effector Ubi:SnRK1A, Ubi:SKIN1 or Ubi:SKIN(Ri) alone and reporter SRC-35Smp:Luc, or co-transfected with effectors Ubi:SnRK1A and Ubi:SKIN or Ubi:SKIN(Ri) and reporter SRC-35Smp:Luc. (C) Rice embryos (upper panel) were transfected with or without Ubi:SnRK1A and incubated with or without 1 μM ABA or 50 mM sorbitol, and barley aleurones (lower panel) were transfected with or without Ubi:SnRK1A and incubated with 5 μM ABA or 400 mM sorbitol.
Rice embryos were prepared for particle bombardment as described (Chen et al., 2006). The rice embryos were bombarded with reporter, effectors and internal control at a ratio of 4:2:1 for single effector or 4:2:2:1 for two effectors. The internal control (Ubi::GUS) was used to normalize the reporter enzyme activity because different transformation efficiency might occur in each independent experiment. Bombarded rice embryos were divided into two halves, with half being incubated in MS liquid medium containing 100 mM Glc, and the other half grown in MS liquid containing 100 mM mannitol, for 24 h. Total proteins were extracted for embryos with a cell lysis buffer [0.1 M K-phosphate, pH 7.8, 1 mM EDTA, 10% glycerol, 1% triton X-100, and 7 mM β-mercaptoethanol]. GUS assay buffer [0.1 M Na-phosphate, 20 mM EDTA, 0.2% sarcosine, 0.2% Triton X-100, and 20 mM β-mercaptoethanol] was used for GUS activity assay. The activity assay of GUS and luciferase were described elsewhere (Lu et al., 1998). All bombardments were repeated at least three times.

αAmy3 SRC promoter [2] = experiment: Barley aleurone transient expression assay, SRC-35Smp:Luc reporter (luciferase); type: cell-based; conditions: barley aleurones, 5 μM ABA or 400 mM sorbitol, 24 h
Procedure: as §1
The barley aleurone/endosperm transient expression assays were performed as described (Hong et al., 2012). Each independent experiment consisted of three replicates, with six endosperms for each treatment, and was repeated three times with similar results. Luciferase and GUS activity assays were performed as described (Hong et al., 2012). […]

[3] = target: T1, GAD-SnRK1A (full-length SnRK1A 1-505 fused to the Gal4 activation domain) (rice, UniProt Q852Q2 1-505); experiment: yeast two-hybrid, GBD-SKIN1 truncation with GAD-SnRK1A
T1 construct: range 1-505
T1 sequence (looked up): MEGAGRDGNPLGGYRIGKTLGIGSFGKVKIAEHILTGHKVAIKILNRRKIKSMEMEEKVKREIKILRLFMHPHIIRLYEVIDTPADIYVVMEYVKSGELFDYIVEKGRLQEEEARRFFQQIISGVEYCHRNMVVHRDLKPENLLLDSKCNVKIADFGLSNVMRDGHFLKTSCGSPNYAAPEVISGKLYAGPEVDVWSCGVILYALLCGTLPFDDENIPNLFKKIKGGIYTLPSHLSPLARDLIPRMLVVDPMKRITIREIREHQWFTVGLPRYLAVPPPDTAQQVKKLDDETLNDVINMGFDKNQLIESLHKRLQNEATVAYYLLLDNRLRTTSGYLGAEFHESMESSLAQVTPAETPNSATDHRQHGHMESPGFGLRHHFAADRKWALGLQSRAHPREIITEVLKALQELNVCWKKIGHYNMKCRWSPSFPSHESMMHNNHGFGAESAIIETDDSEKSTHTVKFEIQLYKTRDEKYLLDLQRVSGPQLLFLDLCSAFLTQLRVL
Source text: FIG. 14. The N-terminal amino acids 1-83 of SKIN1 interact with the kinase and autoinhibitory domains of SnRK1A in yeast. (A) Plasmid constructs ADH1:GAD-SnRK1A and ADH1:GBD-SKIN1 (wild type or deletion at N- or C-terminus) were used as effectors, and Mel1:LacZ, Mel1:Mel1 and Gal1:HIS3 were used as reporters. (B) The N-terminus of SKIN1 interacts with SnRK1A in the yeast two-hybrid assays. (C) The kinase domain (KD) and auto-inhibitory domain (AID) of SnRK1A interact with SKIN1 and SKIN2. Yeast strain AH109 containing GAD-SnRK1A or GAD alone (-) was mated with yeast strain Y187 containing various GBD-SKIN1 constructs or GBD alone (-). The interaction between p53 and large T-antigen (T-Ag) was used as a positive control.

With `[Cl-].[Na+]` [salt, NaCl] the “Induction of SKIN1 mRNA accumulation” value (SKIN1) was no more than 2.3 fold.

With `OC[C@@H](O)[C@@H](O)[C@H](O)[C@@H](O)CO` [sorbitol] the “Effect on αAmy3 SRC promoter (luciferase activity), alone and SnRK1A-activated” value (αAmy3 SRC promoter [1]; rice embryos, 1 μM ABA or 50 mM sorbitol) was “suppressed” and the “Effect on αAmy3 SRC promoter (luciferase activity), alone and SnRK1A-activated” value (αAmy3 SRC promoter [2]) was “suppressed”.

B1: GBD-SKIN1 84-259 (other)
chain: MKLLSSIEQACDICRLKKLKCSKEKPKCAKCLKNNWECRYSPKTKRSPLTRAHLTEVESRLERLEQLFLLIFPREDLDMILKMDSLQDIKALLTGLFVQDNVNKDAVTDRLASVETDMPLTLRQHRISATSSSEESSNKGQRQLTVSVESKLKAEDEQVGLGCLDALEESLPIKRGLSNFYAGKSKSFTSLAEATASPAAAANELAKPENPFNKRRRILATWSRRASCSSLATATYLPPLLAPDHAVAEGDEGEEEDDDSDDDERQHRGKNGGRRESAAPPLPLPPPRLTLHTQMGGMVRRNGTFRSPRSLSLSDLQNSGGSC
B1: no binding [3].

B2: GBD-SKIN1 84-159 (other)
chain: MKLLSSIEQACDICRLKKLKCSKEKPKCAKCLKNNWECRYSPKTKRSPLTRAHLTEVESRLERLEQLFLLIFPREDLDMILKMDSLQDIKALLTGLFVQDNVNKDAVTDRLASVETDMPLTLRQHRISATSSSEESSNKGQRQLTVSVESKLKAEDEQVGLGCLDALEESLPIKRGLSNFYAGKSKSFTSLAEATASPAAAANELAKPENPFNKRRRILATWS
B2: no binding [3].

B3: GBD-SKIN1 160-259 (other)
chain: MKLLSSIEQACDICRLKKLKCSKEKPKCAKCLKNNWECRYSPKTKRSPLTRAHLTEVESRLERLEQLFLLIFPREDLDMILKMDSLQDIKALLTGLFVQDNVNKDAVTDRLASVETDMPLTLRQHRISATSSSEESSNKGQRQLTVSRRASCSSLATATYLPPLLAPDHAVAEGDEGEEEDDDSDDDERQHRGKNGGRRESAAPPLPLPPPRLTLHTQMGGMVRRNGTFRSPRSLSLSDLQNSGGSC
With B3 the “Antagonism of SnRK1A function on αAmy3 SRC promoter” value (αAmy3 SRC promoter [1]) was “did not antagonize” and the binding result [3] was “no binding”.

B4: SnRK1A: rice Snf1-related protein kinase 1A, overexpressed from Ubi:SnRK1A effector (protein)
chain: T1 sequence (looked up)
modifications: left off: large carriers
B4 was tested, and the “αAmy3 SRC promoter activity on overexpression of the effector” value (αAmy3 SRC promoter [1]; 100 mM glucose (+S) or without glucose (−S)) was “enhanced”.

B5: SKIN1(1-83): truncated SKIN1 containing amino acids 1-83 (protein)
chain: MKLLSSIEQACDICRLKKLKCSKEKPKCAKCLKNNWECRYSPKTKRSPLTRAHLTEVESRLERLEQLFLLIFPREDLDMILKMDSLQDIKALLTGLFVQDNVNKDAVTDRLASVETDMPLTLRQHRISATSSSEESSNKGQRQLTVSMSTAVADVPPAAAYGFPGSAKRGKPEEVVVLMGKRRNEGFFIEEEEEEEEVLTESSSIGAPSPASSSIGENSGEEEGGDDEEE
For B5, the “Antagonism of SnRK1A function on αAmy3 SRC promoter” value (αAmy3 SRC promoter [1]) was “did not antagonize”.
